Experimental findings from patent US12630600B2 (MEDIMMUNE LIMITED, priority 2022, dated 2026) are described below.

Starred links: 1 amine or outer side, 2 acyl side, 3 side chain; linkers in the order of their positions; H or OH if unused. Non-standard residues stand in square brackets, D forms with d. Groups on a side chain read outwards from the residue. No end group written: not given here. *: point of attachment. C20 diacid = O=C(O)CCCCCCCCCCCCCCCCCCC(=O)*; C18 diacid = O=C(O)CCCCCCCCCCCCCCCCC(=O)*; γGlu = O=C(O)[C@H](CCC(=O)[*:2])N[*:1]; αMeF = C[C@](N)(Cc1ccccc1)C(=O)O; AEEA = NCCOCCOCC(=O)O; Aib = CC(C)(N)C(=O)O

Assay [1] has as its target human glucagon receptor (human, UniProt P47871). Nature of the assay: cell-based or functional assay.
The target of assay [2] is human GLP-1 receptor (human, UniProt P43220). Nature of the assay: cell-based or functional assay.

Consider H[Aib]HGS[αMeF]TSDVSK[αMeF]LDSRAAK([AEEA-AEEA-γGlu-γGlu-C20 diacid])DFVQWIANT-NH2 (not fully specified) [Peptide 290], for which the “hGluc-R EC50 (pM)” value in assay [1] came out at 260 pM. Also, in assay [2], the “hGLP-1R EC50 (pM)” value came out at 347 pM.
In the same order, the values of H[Aib]HGS[αMeF]TSDVSK[Aib]LDSRAAK([AEEA-AEEA-γGlu-C18 diacid])D[αMeF]VQ[Aib]IANT-NH2 [Peptide 296] are 3250 pM and 64.1 pM.
For the molecule H[Aib]HGS[αMeF]TSDVSK[αMeF]LDSRAAKD[αMeF]VQWIANT-NH2 (not fully specified (residue 20); also: X13: αMePhe or Y (table)) [Peptide 289], in assay [1], the “hGluc-R EC50 (pM)” value came out at 148 pM. Moreover, in assay [2], the “hGLP-1R EC50 (pM)” value came out at 118 pM.
As for H[Aib]HGS[αMeF]TSDVSKYLDSRAAK([AEEA-AEEA-γGlu-C18 diacid])D[αMeF]VQ[Aib]IANT-NH2 (not fully specified; also: X13: αMePhe or Y (table)) [Peptide 286], in assay [1], the “hGluc-R EC50 (pM)” value is 53 pM. The “hGLP-1R EC50 (pM)” value in assay [2] worked out at 31.6 pM.
Regarding H[Aib]HGS[αMeF]TSDVSK[αMeF]LDSRAAK([AEEA-AEEA-γGlu-γGlu-C20 diacid])D[αMeF]VQ[Aib]IANT-NH2 [Peptide 281], the “hGluc-R EC50 (pM)” value in assay [1] came to 1040 pM. Moreover, the “hGLP-1R EC50 (pM)” value in assay [2] was found to be 155 pM.
For H[Aib]HGS[αMeF]TSDVSK[αMeF]LDSRAAK([AEEA-AEEA-γGlu-C18 diacid])D[αMeF]VQWIANT-NH2 [Peptide 288], the “hGluc-R EC50 (pM)” value in assay [1] was 26.9 pM. The “hGLP-1R EC50 (pM)” value in assay [2] was found to be 42.7 pM.
Take H[Aib]HGS[αMeF]TSDVSK[αMeF]LDSRAAK([AEEA-AEEA-γGlu-C18 diacid])D[αMeF]VQ[Aib]IANT-NH2 [Peptide 284]: the “hGluc-R EC50 (pM)” value in assay [1] was 119 pM. Further, the “hGLP-1R EC50 (pM)” value in assay [2] stood at 43.4 pM.
In the same order, the values of HSHGS[αMeF]TSDVSK[αMeF]LDSRAAK([AEEA-AEEA-γGlu-C18 diacid])D[αMeF]VQ[Aib]IANT-NH2 [Peptide 285] are 87 pM and 301 pM.
H[Aib]HGS[αMeF]TSDVSK[αMeF]LDSRAAK([AEEA-AEEA-γGlu-γGlu-C20 diacid])D[αMeF]VQ[Aib]IANT-NH2 (not fully specified) [Peptide 282]: in assay [1], the “hGluc-R EC50 (pM)” value was found to be 1140 pM. Also, the “hGLP-1R EC50 (pM)” value in assay [2] turned out to be 1230 pM.
With H[Aib]HGS[αMeF]TSDVSK[Aib]LDSRAAK([AEEA-AEEA-γGlu-γGlu-C20 diacid])D[αMeF]VQ[Aib]IANT-NH2 [Peptide 295], in assay [1], the “hGluc-R EC50 (pM)” value turned out to be 17100 pM. Also, in assay [2], the “hGLP-1R EC50 (pM)” value is 312 pM.
Take H[Aib]HGS[αMeF]TSDVSKYLDSRAAKDFVQWIANT-NH2 (not fully specified (residue 20)) [Peptide 292]: in assay [1], the “hGluc-R EC50 (pM)” value was 20.4 pM. Besides, the “hGLP-1R EC50 (pM)” value in assay [2] amounted to 28.7 pM.
For H[Aib]HGS[αMeF]TSDVSK[αMeF]LDSRAAK([AEEA-AEEA-γGlu-C18 diacid])DFVQ[Aib]IANT-NH2 [Peptide 287], in assay [1], the “hGluc-R EC50 (pM)” value worked out at 26.5 pM. Moreover, the “hGLP-1R EC50 (pM)” value in assay [2] was 27.5 pM.
